# From PMC2788227 (PLoS ONE, 2009)
# Assays:
# [1] = system: CC(=O)[C@@H](O)[C@H](O)COP(=O)(O)O; assay: purified protein; settings: pH 7.8; 22.0 °C
# [2] = system: NC(=O)C1=CN([C@@H]2O[C@H](COP(=O)(O)OP(=O)(O)OC[C@H]3O[C@@H](n4cnc5c(N)ncnc54)[C@H](OP(=O)(O)O)[C@@H]3O)[C@@H](O)[C@H]2O)C=CC1; assay: purified protein; settings: pH 7.8; 22.0 °C; varied: cofactor
substance,measurement,setting,value
F. tularensis MEP synthase (IspC; 1-deoxy-D-xylulose 5-phosphate reductoisomerase) (Francisella tularensis subsp. holarctica LVS),Km,[1],103.7 ± 12.1 µM
same,Km,[2],13.3 ± 1.5 µM
